{"source": "paper PMC7616709", "about": "(Molecular cell, 2024)", "target": "the molecule itself"}
{"protein": "WDR26 (subunit of the recombinant WDR26-CTLH E3) (natural protein, human, UniProt Q9H7D7 1-661, looked up, WDR26, human, from human cDNA library (pFLN WDR26); The models 8QE8 and 8QBN exclude the CTLH-CRA^N domain of WDR26; also called WDR26 dimer) MQANGAGGGGGGGGGGGGGGGGGGGQGQTPELACLSAQNGESSPSSSSSAGDLAHANGLLPSAPSAASNNSNSLNVNNGVPGGAAAASSATVAAASATTAASSSLATPELGSSLKKKKRLSQSDEDVIRLIGQHLNGLGLNQTVDLLMQESGCRLEHPSATKFRNHVMEGDWDKAENDLNELKPLVHSPHAIVVRGALEISQTLLGIIVRMKFLLLQQKYLEYLEDGKVLEALQVLRCELTPLKYNTERIHVLSGYLMCSHAEDLRAKAEWEGKGTASRSKLLDKLQTYLPPSVMLPPRRLQTLLRQAVELQRDRCLYHNTKLDNNLDSVSLLIDHVCSRRQFPCYTQQILTEHCNEVWFCKFSNDGTKLATGSKDTTVIIWQVDPDTHLLKLLKTLEGHAYGVSYIAWSPDDNYLVACGPDDCSELWLWNVQTGELRTKMSQSHEDSLTSVAWNPDGKRFVTGGQRGQFYQCDLDGNLLDSWEGVRVQCLWCLSDGKTVLASDTHQRIRGYNFEDLTDRNIVQEDHPIMSFTISKNGRLALLNVATQGVHLWDLQDRVLVRKYQGVTQGFYTIHSCFGGHNEDFIASGSEDHKVYIWHKRSELPIAELTGHTRTVNCVSWNPQIPSMMASASDDGTVRIWGPAPFIDHQNIEEECSSMDS", "values": [{"measurement": "stoichiometry N", "result": 2}]}
